From US20020123082A1 (NEW YORK UNIVERSITY, published 2002)

target: His-tagged Elongin C (human, UniProt Q15369 1-112); assay: pull-down of in vitro translated 35S-FBP on His-Elongin C Nickel-agarose beads
Procedure: FIG. 29. FBPs interact specifically with Skp1 through their F-box. The cDNAs of FBPs (wild type and mutants) were transcribed and translated in vitro (IVT) in the presence of 35S- methionine. […] Bound IVT proteins were analyzed by SDS-PAGE and autoradiography. The arrows on the left side of the panels point to the indicated FBPs. The apparent molecular weights of the protein standards are indicated on the right side of the panels.
As examples of the human FBP family, a more detailed characterization of some FBPs was performed. To confirm the specificity of interaction between the novel FBPs and human Skp1, eight in vitro translated FBPs were tested for binding to His-tagged-Skp1 pre-bound to Nickel-agarose beads. As a control Elongin C was used, the only known human Skp1 homolog.

His-tagged Elongin C, sequence (Q15369 whole entry): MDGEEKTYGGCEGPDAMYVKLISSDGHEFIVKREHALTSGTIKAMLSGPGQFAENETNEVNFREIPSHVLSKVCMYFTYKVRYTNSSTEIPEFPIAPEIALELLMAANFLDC

binding result	Binder
no binding	human F-box protein FBP5 (other, Gal4 AD fusion in the two-hybrid screen; the clone appeared to be full length) MSRRPCSCALRPPRCSCSASPSAVTAAGRPRPSDSCKEESSTLSVKMKCDFNCNHVHSGLKLVKPDDIGRLVSYTPAYLEGSCKDCIKDYERLSCIGSPIVSPRIVQLETESKRLHNKENQHVQQTLNSTNEIEALETSRLYEDSGYSSFSLQSGLSEHEEGSLLEENFGDSLQSCLLQIQSPDQYPNKNLLPVLHFEKVVCSTLKKNAKRNPKVDREMLKEIIARGNFRLQNIIGRKMGLECVDILSELFRRGLRHVLATILAQLSDMDLINVSKVSTTWKKILEDDKGAFQLYSKAIQRVTENNNKFSPHASTREYVMFRTPLASVQKSAAQTSLKKDAQTKLSNQGDQKGSTYSRHNEFSEVAKTLKKNESLKACIRCNSPAKYDCYLQRATCKREGCGFDYCTKCLCNYHTTKDCSDGKLLKASCKIGPLPGTKKSKKNLRRL
no binding	human F-box protein FBP1 (other) MDPAEAVLQEKALKFMNSSEREDCNNGEPPRKIIPEKNSLRQTYNSCARLCLNQETVCLASTAMKTENCVAKTKLANGTSSMIVPKQRKLSASYEKEKELCVKYFEQWSESDQVEFVEHLISQMCHYQHGHINSYLKPMLQRDFITALPARGLDHIAENILSYLDAKSLCAAELVCKEWYRVTSDGMLWKKLIERMVRTDSLWRGLAERRGWGQYLFKNKPPDGNAPPNSFYRALYPKIIQDIETIESNWRCGRHSLQRIHCRSETSKGVYCLQYDDQKIVSGLRDNTIKIWDKNTLECKRILTGHTGSVLCLQYDERVIITGSSDSTVRVWDVNTGEMLNTLIHHCEAVLHLRFNNGMMVTCSKDRSIAVWDMASPTDITLRRVLVGHRAAVNVVDFDDKYIVSASGDRTIKVWNTSTCEFVRTLNGHKRGIACLQYRDRLVVSGSSDNTIRLWDIECGACLRVLEGHEELVRCIRFDNKRIVSGAYDGKIKVWDLVAALDPRAPAGTLCLRTLVEHSGRVFRLQFDEFQIVSSSHDDTILIWDFLNDPAAQAEPPRSPSRTYTYISR
no binding	human F-box protein FBP3a (other) MKRGGRDSDRNSSEEGTAEKSKKLRTTNEHSQTCDWGNLLQDIILQVFKYLPLLDRAHASQVCRNWNQVFHMPDLWRCFEFELNQPATSYLKATHPELIKQIIKRHSNHLQYVSFKVDSSKESAEAACDILSQLVNCSLKTLGLISTARPSFMDLPKSHFISALTVVFVNSKSLSSLKIDDTPVDDPSLKVLVANNSDTLKLLKMSSCPHVSPAGILCVADQCHGLRELALNYHLLSDELLLALSSEKHVRLEHLRIDVVSENPGQTHFHTIQKSSWDAFIRHSPKVNLVMYFFLYEEEFDPFFRYEIPATHLYFGRSVSKDVLGRVGMTCPRLVELVVCANGLRPLDEELIRIAERCKNLSAIGLGECEVSCSAFVEFVKMCGGRLSQLSIMEEVLIPDQKYSLEQIHWEVSKHLGRVWFPDMMPTW
no binding	human F-box protein FBP2 (other) MERKDFETWLDNISVTFLSLTDLQKNETLDHLISLSGAVQLRHLSNNLETLLKRDFLKLLPLELSFYLLKWLDPQTLLTCCLVSKQWNKVISACTEVWQTACKNLGWQIDDSVQDALHWKKVYLKAILRMKQLEDHEAFETSSLIGHSARVYALYYKDGLLCTGSDDLSAKLWDVSTGQCVYGIQTHTCAAVKFDEQKLVTGSFDNTVACWEWSSGARTQHFRGHTGAVFSVDYNDELDILVSGSADFTVKVWALSAGTCLNTLTGHTEWVTKVVLQKCKVKSLLHSPGDYILLSADKYEIKIWPIGREINCKCLKTLSVSEDRSICLQPRLHFDGKYIVCSSALGLYQWDFASYDILRVIKTPEIANLALLGFGDIFALLFDNRYLYIMDLRTESLISRWPLPEYRESKRGSSFLAGEHPG

target: human Cul2 (endogenous) (human, UniProt Q13617 1-745, limits assumed); assay: anti-Flag co-immunoprecipitation from transfected HeLa cells, anti-Cul2 immunoblot
Source text: (§1) HeLa cells were transfected with mammalian expression plasmids encoding Flag-tagged versions of FBP1 (lane 1), (ΔF)FBP1 (lane 2), FBP4 (lane 3), FBP7 (lane 5), FBP2 (lane 7), (ΔF)FBP2 (lane 8), FBP3a (lane 9), (ΔF)FBP3a (lane 10), or with an empty vector (lanes 4 and 6). Cells were lysed and extracts were subjected to immunoprecipitation with a rabbit anti-Flag antibody (lanes 1-8). Immunoprecipitates were then immunoblotted with a mouse anti-Cul1 monoclonal antibody, a rabbit anti-Skp1 polyclonal antibody or a rabbit anti-Cul2 polyclonal antibody, as indicated. The last lane contains 25 μg of extracts from non-transfected HeLa cells; […] contains recombinant Cul1, Skp1, or Cul2 proteins used as markers.

human Cul2 (endogenous), sequence (Q13617 whole entry): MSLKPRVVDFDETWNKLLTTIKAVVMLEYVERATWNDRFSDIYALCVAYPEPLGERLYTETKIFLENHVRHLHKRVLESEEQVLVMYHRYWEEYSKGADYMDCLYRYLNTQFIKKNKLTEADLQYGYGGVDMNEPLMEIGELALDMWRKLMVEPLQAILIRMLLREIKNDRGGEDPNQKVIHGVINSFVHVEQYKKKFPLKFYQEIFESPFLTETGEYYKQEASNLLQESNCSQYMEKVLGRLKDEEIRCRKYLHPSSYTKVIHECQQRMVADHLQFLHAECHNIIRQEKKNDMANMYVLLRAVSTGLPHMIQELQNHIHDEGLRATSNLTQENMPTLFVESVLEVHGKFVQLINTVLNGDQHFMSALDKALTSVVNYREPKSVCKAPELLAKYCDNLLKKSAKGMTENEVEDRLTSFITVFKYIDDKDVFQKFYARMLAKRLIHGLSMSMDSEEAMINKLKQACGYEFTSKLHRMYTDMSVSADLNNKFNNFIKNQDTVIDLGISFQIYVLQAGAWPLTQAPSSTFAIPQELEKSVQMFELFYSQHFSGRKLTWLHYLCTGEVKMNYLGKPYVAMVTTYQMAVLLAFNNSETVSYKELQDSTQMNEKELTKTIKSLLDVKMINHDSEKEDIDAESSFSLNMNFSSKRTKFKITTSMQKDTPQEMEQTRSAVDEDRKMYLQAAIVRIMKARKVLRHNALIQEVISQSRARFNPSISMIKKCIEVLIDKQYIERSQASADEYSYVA

binding result	Binder
no binding	Flag-tagged FBP1 (other, not shown: small tags and cut ends, Flag tag at the C-terminus in the pcDNA3 constructs (HeLa, 293 cells); also called Flag-FBP1) MDPAEAVLQEKALKFMNSSEREDCNNGEPPRKIIPEKNSLRQTYNSCARLCLNQETVCLASTAMKTENCVAKTKLANGTSSMIVPKQRKLSASYEKEKELCVKYFEQWSESDQVEFVEHLISQMCHYQHGHINSYLKPMLQRDFITALPARGLDHIAENILSYLDAKSLCAAELVCKEWYRVTSDGMLWKKLIERMVRTDSLWRGLAERRGWGQYLFKNKPPDGNAPPNSFYRALYPKIIQDIETIESNWRCGRHSLQRIHCRSETSKGVYCLQYDDQKIVSGLRDNTIKIWDKNTLECKRILTGHTGSVLCLQYDERVIITGSSDSTVRVWDVNTGEMLNTLIHHCEAVLHLRFNNGMMVTCSKDRSIAVWDMASPTDITLRRVLVGHRAAVNVVDFDDKYIVSASGDRTIKVWNTSTCEFVRTLNGHKRGIACLQYRDRLVVSGSSDNTIRLWDIECGACLRVLEGHEELVRCIRFDNKRIVSGAYDGKIKVWDLVAALDPRAPAGTLCLRTLVEHSGRVFRLQFDEFQIVSSSHDDTILIWDFLNDPAAQAEPPRSPSRTYTYISR
no binding	Flag-tagged FBP3a (other, not shown: small tags and cut ends, pcDNA3 construct, Flag tag at the C-terminus) MKRGGRDSDRNSSEEGTAEKSKKLRTTNEHSQTCDWGNLLQDIILQVFKYLPLLDRAHASQVCRNWNQVFHMPDLWRCFEFELNQPATSYLKATHPELIKQIIKRHSNHLQYVSFKVDSSKESAEAACDILSQLVNCSLKTLGLISTARPSFMDLPKSHFISALTVVFVNSKSLSSLKIDDTPVDDPSLKVLVANNSDTLKLLKMSSCPHVSPAGILCVADQCHGLRELALNYHLLSDELLLALSSEKHVRLEHLRIDVVSENPGQTHFHTIQKSSWDAFIRHSPKVNLVMYFFLYEEEFDPFFRYEIPATHLYFGRSVSKDVLGRVGMTCPRLVELVVCANGLRPLDEELIRIAERCKNLSAIGLGECEVSCSAFVEFVKMCGGRLSQLSIMEEVLIPDQKYSLEQIHWEVSKHLGRVWFPDMMPTW
no binding	Flag-tagged FBP7 (other, not shown: small tags and cut ends, Expressed in HeLa cells) MSNTRFTITLNYKDPLTGDEETLASYGIVSGDLICLILHDDIPPPNIPSSTDSEHSSLQNNEQPSLATSSNQTSIQDEQPSDSFQGQAAQSGVWNDDSMLGPSQNFEAESIQDNAHMAEGTGFYPSEPLLCSESVEGQVPHSLETLYQSADCSDANDALIVLIHLLMLESGYIPQGTEAKALSLPEKWKLSGVYKLQYMHHLCEGSSATLTCVPLGNLIVVNATLKINNEIRSVKRLQLLPESFICKEKLGENVANIYKDLQKLSRLFKDQLVYPLLAFTRQALNLPNVFGLVVLPLELKLRIFRLLDVRSVLSLSAVCRDLFTASNDPLLWRFLYLRDFRDNTVRVQDTDWKELYRKRHIQRKESPKGRFVLLLPSSTHTIPFYPNPLHPRPFPSSRLPPGIIGGEYDQRPTLPYVGDPISSLIPGPGETPSQLPPLRPRFDPVGPLPGPNPILPGRGGPNDRFPFRPSRGRPTDGRLSFM
no binding	Flag-tagged FBP2 (other, not shown: small tags and cut ends, pcDNA3 construct, Flag tag at the C-terminus) MERKDFETWLDNISVTFLSLTDLQKNETLDHLISLSGAVQLRHLSNNLETLLKRDFLKLLPLELSFYLLKWLDPQTLLTCCLVSKQWNKVISACTEVWQTACKNLGWQIDDSVQDALHWKKVYLKAILRMKQLEDHEAFETSSLIGHSARVYALYYKDGLLCTGSDDLSAKLWDVSTGQCVYGIQTHTCAAVKFDEQKLVTGSFDNTVACWEWSSGARTQHFRGHTGAVFSVDYNDELDILVSGSADFTVKVWALSAGTCLNTLTGHTEWVTKVVLQKCKVKSLLHSPGDYILLSADKYEIKIWPIGREINCKCLKTLSVSEDRSICLQPRLHFDGKYIVCSSALGLYQWDFASYDILRVIKTPEIANLALLGFGDIFALLFDNRYLYIMDLRTESLISRWPLPEYRESKRGSSFLAGEHPG
no binding	Flag-tagged FBP4 (other, not shown: small tags and cut ends, pcDNA3 construct, Flag tag at the C-terminus) MAGSEPRSGTNSPPPPFSDWGRLEAAILSGWKTFWQSVSKDRVARTTSREEVDEAASTLTRLPIDVQLYILSFLSPHDLCQLGSTNHYWNETVRNPILWRYFLLRDLPSWSSVDWKSLPYLQILKKPISEVSDGAFFDYMAVYLMCCPYTRRASKSSRPMYGAVTSFLHSLIIPNEPRFALFGPRLEQLNTSLVLSLLSSEELCPTAGLPQRQIDGIGSGVNFQLNNQHKFNILILYSTTRKERDRAREEHTSAVNKMFSRHNEGDDRPGSRYSVIPQIQKLCEVVDGFIYVANAEAHKRHEWQDEFSHIMAMTDPAFGSSGRPLLVLSCISQGDVKRMPCFYLAHELHLNLLNHPWLVQDTEAETLTGFLNGIEWILEEVESKRAR

target: T1, human Cul1 (endogenous) (human, UniProt Q13616 1-776); assay: anti-Flag co-immunoprecipitation from transfected HeLa cells, anti-Cul1 immunoblot
T1 construct: A slower migrating form is said to be likely modified by a ubiquitin-like molecule
Source text: as §1

T1 sequence (Q13616 whole entry): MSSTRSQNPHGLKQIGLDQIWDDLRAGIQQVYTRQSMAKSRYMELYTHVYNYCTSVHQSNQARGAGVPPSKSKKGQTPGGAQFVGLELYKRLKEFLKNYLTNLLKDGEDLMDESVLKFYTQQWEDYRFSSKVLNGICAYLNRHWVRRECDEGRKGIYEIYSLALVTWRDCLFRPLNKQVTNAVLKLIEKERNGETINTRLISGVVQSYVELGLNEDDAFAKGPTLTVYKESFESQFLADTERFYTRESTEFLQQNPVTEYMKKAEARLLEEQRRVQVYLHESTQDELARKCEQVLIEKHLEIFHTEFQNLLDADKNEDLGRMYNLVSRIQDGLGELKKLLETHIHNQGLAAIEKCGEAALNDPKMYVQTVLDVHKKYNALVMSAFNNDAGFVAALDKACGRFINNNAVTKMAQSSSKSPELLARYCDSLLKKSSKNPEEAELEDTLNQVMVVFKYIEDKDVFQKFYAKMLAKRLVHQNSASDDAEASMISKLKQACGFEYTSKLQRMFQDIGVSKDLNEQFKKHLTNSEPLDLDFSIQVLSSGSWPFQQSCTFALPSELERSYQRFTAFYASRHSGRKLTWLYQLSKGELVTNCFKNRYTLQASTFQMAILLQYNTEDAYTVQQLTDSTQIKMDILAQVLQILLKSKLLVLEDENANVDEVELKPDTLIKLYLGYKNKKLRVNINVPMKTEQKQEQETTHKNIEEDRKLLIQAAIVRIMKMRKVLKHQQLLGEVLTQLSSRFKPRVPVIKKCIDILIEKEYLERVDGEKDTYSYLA

binding result	Binder
no binding	Flag-tagged (ΔF)FBP2 (other, not shown: small tags and cut ends, pcDNA3 construct, Flag tag at the C-terminus; also called Flag-tagged (deltaF)FBP2) MERKDFETWLDNISVTFLSLTDLQKNETLDHLISLSGAVQLRHLSNNLETLLKRDFLKLCKNLGWQIDDSVQDALHWKKVYLKAILRMKQLEDHEAFETSSLIGHSARVYALYYKDGLLCTGSDDLSAKLWDVSTGQCVYGIQTHTCAAVKFDEQKLVTGSFDNTVACWEWSSGARTQHFRGHTGAVFSVDYNDELDILVSGSADFTVKVWALSAGTCLNTLTGHTEWVTKVVLQKCKVKSLLHSPGDYILLSADKYEIKIWPIGREINCKCLKTLSVSEDRSICLQPRLHFDGKYIVCSSALGLYQWDFASYDILRVIKTPEIANLALLGFGDIFALLFDNRYLYIMDLRTESLISRWPLPEYRESKRGSSFLAGEHPG
no binding	Flag-tagged (ΔF)FBP1 (other, not shown: small tags and cut ends, pcDNA3 construct, Flag tag at the C-terminus; also called Flag-tagged (deltaF)FBP1) MDPAEAVLQEKALKFMNSSEREDCNNGEPPRYRVTSDGMLWKKLIERMVRTDSLWRGLAERRGWGQYLFKNKPPDGNAPPNSFYRALYPKIIQDIETIESNWRCGRHSLQRIHCRSETSKGVYCLQYDDQKIVSGLRDNTIKIWDKNTLECKRILTGHTGSVLCLQYDERVIITGSSDSTVRVWDVNTGEMLNTLIHHCEAVLHLRFNNGMMVTCSKDRSIAVWDMASPTDITLRRVLVGHRAAVNVVDFDDKYIVSASGDRTIKVWNTSTCEFVRTLNGHKRGIACLQYRDRLVVSGSSDNTIRLWDIECGACLRVLEGHEELVRCIRFDNKRIVSGAYDGKIKVWDLVAALDPRAPAGTLCLRTLVEHSGRVFRLQFDEFQIVSSSHDDTILIWDFLNDPAAQAEPPRSPSRTYTYISR
